We go through two molecules from article PMC6510891, “Functional duplication of Rap1 in methylotrophic yeasts”.

Conditions in all cases: protein: recombinant; 3' overhang 20 nt on strand 2
Series [1] concerns the target T1, HpRap1B (Hansenula polymorpha DL-1, UniProt W1QDN2 1-576).
T1 sequence: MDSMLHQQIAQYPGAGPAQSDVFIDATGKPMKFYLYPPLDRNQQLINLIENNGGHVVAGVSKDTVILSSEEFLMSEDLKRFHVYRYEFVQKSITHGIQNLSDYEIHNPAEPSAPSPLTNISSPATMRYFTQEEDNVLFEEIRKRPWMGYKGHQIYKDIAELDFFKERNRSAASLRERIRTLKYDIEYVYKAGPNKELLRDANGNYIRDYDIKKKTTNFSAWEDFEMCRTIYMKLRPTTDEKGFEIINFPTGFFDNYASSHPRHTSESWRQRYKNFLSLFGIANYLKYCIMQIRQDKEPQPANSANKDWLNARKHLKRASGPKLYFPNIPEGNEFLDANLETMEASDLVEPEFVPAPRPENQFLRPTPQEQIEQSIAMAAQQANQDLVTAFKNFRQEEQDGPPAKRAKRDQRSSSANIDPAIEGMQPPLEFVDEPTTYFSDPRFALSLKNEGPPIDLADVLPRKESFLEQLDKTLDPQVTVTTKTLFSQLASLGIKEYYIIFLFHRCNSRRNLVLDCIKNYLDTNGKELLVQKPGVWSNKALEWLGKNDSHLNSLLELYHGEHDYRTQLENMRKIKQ
Kind of series: SPR; kinetic fit; equilibrium Kd 13±3; SPR: 10 mM HEPES-NaOH pH 7.5, 150 mM NaCl, 0.5 mM DTT, 0.05% Tween 20, 1 mg/ml BSA, 0.02 mg/ml salmon sperm DNA; competition 2 nM protein with 20 or 200 nM competitor. EMSA: 20 mM HEPES-NaOH pH 7.5, 50 mM NaCl, 0.2 mg/ml BSA, 5% glycerol, 0.1 mg/ml salmon sperm DNA, room temperature. A general note: Surface plasmon resonance follows binding to a sensor surface in real time, without labels.

Series [2] addresses T1, HpRap1B. Kind of series: SPR; kinetic fit; equilibrium Kd 11±1; SPR: 10 mM HEPES-NaOH pH 7.5, 150 mM NaCl, 0.5 mM DTT, 0.05% Tween 20, 1 mg/ml BSA, 0.02 mg/ml salmon sperm DNA; competition 2 nM protein with 20 or 200 nM competitor. EMSA: 20 mM HEPES-NaOH pH 7.5, 50 mM NaCl, 0.2 mg/ml BSA, 5% glycerol, 0.1 mg/ml salmon sperm DNA, room temperature.
A further series deals with T2, HpRap1A (Hansenula polymorpha DL-1, UniProt W1Q7Z6 1-613).
T2 sequence: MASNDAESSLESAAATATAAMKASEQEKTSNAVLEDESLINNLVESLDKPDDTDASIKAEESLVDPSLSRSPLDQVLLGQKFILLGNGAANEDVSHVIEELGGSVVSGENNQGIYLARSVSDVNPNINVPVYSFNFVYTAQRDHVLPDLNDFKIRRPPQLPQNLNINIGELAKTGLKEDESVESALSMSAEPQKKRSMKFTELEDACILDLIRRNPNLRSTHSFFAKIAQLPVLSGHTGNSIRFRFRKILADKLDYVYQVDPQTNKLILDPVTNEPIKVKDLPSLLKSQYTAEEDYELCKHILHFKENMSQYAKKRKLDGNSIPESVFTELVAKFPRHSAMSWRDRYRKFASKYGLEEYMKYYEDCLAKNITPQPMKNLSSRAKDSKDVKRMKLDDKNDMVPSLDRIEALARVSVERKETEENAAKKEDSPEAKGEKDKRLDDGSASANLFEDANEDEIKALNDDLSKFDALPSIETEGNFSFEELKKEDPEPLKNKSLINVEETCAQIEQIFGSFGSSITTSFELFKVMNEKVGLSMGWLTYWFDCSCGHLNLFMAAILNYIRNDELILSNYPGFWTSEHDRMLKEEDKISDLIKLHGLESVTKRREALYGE
The experiment in a line: SPR; SPR: 10 mM HEPES-NaOH pH 7.5, 150 mM NaCl, 0.5 mM DTT, 0.05% Tween 20, 1 mg/ml BSA, 0.02 mg/ml salmon sperm DNA; competition 2 nM protein with 20 or 200 nM competitor. EMSA: 20 mM HEPES-NaOH pH 7.5, 50 mM NaCl, 0.2 mg/ml BSA, 5% glycerol, 0.1 mg/ml salmon sperm DNA, room temperature.

B1: HANPO4 (SPR) (dsDNA)
DNA 1: GGGTGGCGGGGTGGCGGGGTGGCGGGGTGGCG
DNA 2: CGCCACCCCGCCACCCCGCCACCCCGCCACCCCCTCTACGTCCTCCTGCTCC
As for B1, the Kd (usually the free concentration of one partner at which half of the binding sites on the other are occupied at equilibrium, for simple one-to-one binding) with HpRap1B [1] worked out at 12 ± 3 nM.

B2: HANPO2 (SPR) (dsDNA)
DNA 1: GGGTGGCGGGGTGGCG
DNA 2: CGCCACCCCGCCACCCCCTCTACGTCCTCCTGCTCC
Turning to B2, the Kd with HpRap1B [2] was found to be 12 ± 1 nM. Further, the binding result with HpRap1A is reported as “no binding”.
